Measured values reported in the supplement of paper PMC9112550, “Optimization of the antimicrobial peptide Bac7 by deep mutational scanning” (BMC Biology, 2022).

Tested on: Escherichia coli TOP10
Assay: shrunken log2 fold change of peptide-encoding DNA abundance (4.5 h post-induction vs induction); higher = less antimicrobial activity (less host growth inhibition)
Settings: time post-induction: 4.5 h; library: site-saturation at positions 5, 18, 19, 20
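Note: peptides expressed intracellularly from a pBAD plasmid library in pooled LB shake-flask culture, induced with 0.3% L-arabinose, DNA abundance read by NGS, three biological replicates, DESeq2 with apeglm shrinkage.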

Sequence	shrunken log2 fold change
RRIRNRPPRLPRPRPRPYIHPRP	-0.387
RRIRPRPPRLPRPRPRPPEHPRP	0.0484
RRIRNRPPRLPRPRPRPKSMPRP	0.0478
RRIRYRPPRLPRPRPRPDTDPRP	-0.02
RRIRERPPRLPRPRPRPEAWPRP	0.0366
RRIRPRPPRLPRPRPRPDPCPRP	-0.0908
RRIRMRPPRLPRPRPRPIGCPRP	0.176
RRIRIRPPRLPRPRPRPCEDPRP	-0.424
RRIRHRPPRLPRPRPRPGAEPRP	0.13
RRIRIRPPRLPRPRPRPYYEPRP	-1.06
RRIRDRPPRLPRPRPRPFAGPRP	0.0426
RRIRQRPPRLPRPRPRPLIEPRP	-0.042
RRIRLRPPRLPRPRPRPKDTPRP	0.0949
RRIRERPPRLPRPRPRPRQCPRP	0.123
RRIRWRPPRLPRPRPRPVVTPRP	0.338
RRIRHRPPRLPRPRPRPNSPPRP	-0.337
RRIRQRPPRLPRPRPRPVCCPRP	0.161
RRIRTRPPRLPRPRPRPEILPRP	0.0249
RRIRYRPPRLPRPRPRPWKNPRP	-0.458
RRIRGRPPRLPRPRPRPFEPPRP	0.267
RRIRIRPPRLPRPRPRPSWYPRP	-0.604
RRIRPRPPRLPRPRPRPCIIPRP	-0.438
RRIRQRPPRLPRPRPRPTPPPRP	0.537
RRIRDRPPRLPRPRPRPVDLPRP	0.0194
RRIRQRPPRLPRPRPRPQNSPRP	-0.0328

Sequence	shrunken log2 fold change
RRIRMRPPRLPRPRPRPWPNPRP	0.25
RRIRYRPPRLPRPRPRPTSCPRP	-0.331
RRIRFRPPRLPRPRPRPYYDPRP	-0.072
RRIRERPPRLPRPRPRPFFVPRP	-0.292
RRIRHRPPRLPRPRPRPHGIPRP	-0.0284
RRIRARPPRLPRPRPRPMDFPRP	2.73
RRIRCRPPRLPRPRPRPTHAPRP	0.975
RRIRCRPPRLPRPRPRPDFWPRP	0.0753
RRIRFRPPRLPRPRPRPSYLPRP	-0.736
RRIRCRPPRLPRPRPRPQGDPRP	0.0138
RRIRWRPPRLPRPRPRPREMPRP	0.262
RRIRGRPPRLPRPRPRPVTRPRP	0.383
RRIRYRPPRLPRPRPRPNVHPRP	-0.745
RRIRERPPRLPRPRPRPLCCPRP	-0.191
RRIRCRPPRLPRPRPRPTVRPRP	0.128
RRIRGRPPRLPRPRPRPGASPRP	0.934
RRIRMRPPRLPRPRPRPERRPRP	0.689
RRIRGRPPRLPRPRPRPQQGPRP	0.0431
RRIRMRPPRLPRPRPRPLNDPRP	0.106
RRIRMRPPRLPRPRPRPIPAPRP	0.788
RRIRKRPPRLPRPRPRPTSGPRP	-0.064
RRIRKRPPRLPRPRPRPHVVPRP	-0.183
RRIRERPPRLPRPRPRPLSIPRP	-0.367
RRIRMRPPRLPRPRPRPIEHPRP	-0.0129
RRIRARPPRLPRPRPRPLFHPRP	-0.249

Sequence	shrunken log2 fold change
RRIRKRPPRLPRPRPRPWADPRP	-0.017
RRIRHRPPRLPRPRPRPYHIPRP	-0.045
RRIRLRPPRLPRPRPRPQIIPRP	0.0457
RRIRKRPPRLPRPRPRPWRFPRP	0.234
RRIRVRPPRLPRPRPRPCLYPRP	-0.0189
RRIRLRPPRLPRPRPRPMLVPRP	-0.225
RRIRGRPPRLPRPRPRPDFAPRP	0.724
RRIRQRPPRLPRPRPRPIPYPRP	-0.0122
RRIRIRPPRLPRPRPRPKNWPRP	-0.035
RRIRMRPPRLPRPRPRPDHNPRP	-0.00429
RRIRCRPPRLPRPRPRPSINPRP	-0.86
RRIRTRPPRLPRPRPRPKQGPRP	0.0588
RRIRKRPPRLPRPRPRPQKQPRP	-0.0697
RRIRCRPPRLPRPRPRPCEFPRP	-0.0925
RRIRFRPPRLPRPRPRPQNLPRP	-0.218
RRIRFRPPRLPRPRPRPLDNPRP	0.0244
RRIRRRPPRLPRPRPRPRWWPRP	0.318
RRIRPRPPRLPRPRPRPKGIPRP	-0.0606
RRIRSRPPRLPRPRPRPDSFPRP	-0.0457
RRIRQRPPRLPRPRPRPCSQPRP	-0.018
RRIRERPPRLPRPRPRPCDIPRP	-0.329
RRIRSRPPRLPRPRPRPMHCPRP	0.377
RRIRVRPPRLPRPRPRPYTQPRP	-0.171
RRIRYRPPRLPRPRPRPSKRPRP	-0.236
RRIRVRPPRLPRPRPRPHIGPRP	-0.0312

Sequence	shrunken log2 fold change
RRIRVRPPRLPRPRPRPYCYPRP	-0.745
RRIRQRPPRLPRPRPRPRIRPRP	0.024
RRIRYRPPRLPRPRPRPKFCPRP	-0.291
RRIRMRPPRLPRPRPRPRLFPRP	0.998
RRIRLRPPRLPRPRPRPPLCPRP	0.162
RRIRNRPPRLPRPRPRPLNLPRP	-0.25
RRIRIRPPRLPRPRPRPLIVPRP	-0.622
RRIRERPPRLPRPRPRPHCYPRP	-0.291
RRIRQRPPRLPRPRPRPQKMPRP	-0.00813
RRIRIRPPRLPRPRPRPHAPPRP	0.2
RRIRYRPPRLPRPRPRPFFTPRP	-0.675
RRIRMRPPRLPRPRPRPEYKPRP	0.359
RRIRKRPPRLPRPRPRPAAQPRP	0.814
RRIRERPPRLPRPRPRPYEDPRP	-0.0116
RRIRERPPRLPRPRPRPIWTPRP	-0.0563
RRIRLRPPRLPRPRPRPTFFPRP	0.14
RRIRYRPPRLPRPRPRPCHIPRP	-0.0462
RRIRNRPPRLPRPRPRPMTTPRP	-0.174
RRIRARPPRLPRPRPRPDDAPRP	0.138
RRIRHRPPRLPRPRPRPYSRPRP	-0.0123
RRIRIRPPRLPRPRPRPRMFPRP	-0.125
RRIRPRPPRLPRPRPRPVWQPRP	0.23
RRIRDRPPRLPRPRPRPNLMPRP	0.0913
RRIRARPPRLPRPRPRPKMMPRP	0.105
RRIRERPPRLPRPRPRPTQAPRP	-0.0212

Sequence	shrunken log2 fold change
RRIRARPPRLPRPRPRPFCAPRP	0.394
RRIRARPPRLPRPRPRPYDCPRP	-0.131
RRIRIRPPRLPRPRPRPSTSPRP	-0.492
RRIRMRPPRLPRPRPRPKGFPRP	0.00502
RRIRHRPPRLPRPRPRPRWVPRP	0.31
RRIRSRPPRLPRPRPRPNGMPRP	-0.0245
RRIRMRPPRLPRPRPRPPAGPRP	1.5
RRIRPRPPRLPRPRPRPVAVPRP	0.143
RRIRVRPPRLPRPRPRPALRPRP	0.306
RRIRCRPPRLPRPRPRPFHNPRP	2.29
RRIRGRPPRLPRPRPRPLGMPRP	0.575
RRIRTRPPRLPRPRPRPCTLPRP	-0.314
RRIRGRPPRLPRPRPRPLIDPRP	1.36
RRIRERPPRLPRPRPRPDCAPRP	0.115
RRIRCRPPRLPRPRPRPTAMPRP	-0.113
RRIRWRPPRLPRPRPRPMDYPRP	-0.314
RRIRYRPPRLPRPRPRPFTKPRP	-0.184
RRIRIRPPRLPRPRPRPWEVPRP	-0.00884
RRIRCRPPRLPRPRPRPGVSPRP	0.0886
RRIRNRPPRLPRPRPRPEILPRP	-0.0178
RRIRMRPPRLPRPRPRPWRRPRP	0.22
RRIRIRPPRLPRPRPRPYDGPRP	-0.0104
RRIRIRPPRLPRPRPRPIHLPRP	-0.352
RRIRQRPPRLPRPRPRPTHRPRP	-0.000309
RRIRNRPPRLPRPRPRPEKMPRP	-0.00664

Sequence	shrunken log2 fold change
RRIRHRPPRLPRPRPRPLRWPRP	0.3
RRIRQRPPRLPRPRPRPPVAPRP	0.121
RRIRKRPPRLPRPRPRPPYQPRP	0.0608
RRIRWRPPRLPRPRPRPLEFPRP	0.0696
RRIRVRPPRLPRPRPRPNNFPRP	1.9
RRIRDRPPRLPRPRPRPFSWPRP	0.198
RRIRRRPPRLPRPRPRPYCQPRP	-0.664
RRIRARPPRLPRPRPRPDLNPRP	0.473
RRIRTRPPRLPRPRPRPYDCPRP	-0.304
RRIRARPPRLPRPRPRPQTWPRP	0.279
RRIRDRPPRLPRPRPRPEGMPRP	0.896
RRIRNRPPRLPRPRPRPLLQPRP	-0.137
RRIRSRPPRLPRPRPRPMFDPRP	-0.0808
RRIRQRPPRLPRPRPRPTFLPRP	-0.358
RRIRFRPPRLPRPRPRPAMFPRP	-0.292
RRIRIRPPRLPRPRPRPQIDPRP	-2.56
RRIRGRPPRLPRPRPRPVMKPRP	0.729
RRIRWRPPRLPRPRPRPLALPRP	0.362
RRIRNRPPRLPRPRPRPPIYPRP	-0.202
RRIRIRPPRLPRPRPRPQPEPRP	0.0576
RRIRMRPPRLPRPRPRPDVGPRP	0.0278
RRIRTRPPRLPRPRPRPNKLPRP	-0.127
RRIRERPPRLPRPRPRPKAKPRP	-0.0257
RRIRGRPPRLPRPRPRPAVMPRP	0.946
RRIRMRPPRLPRPRPRPNQRPRP	0.332
